The source of these data is patent US20080311122A1, “Antagonists of Hmgb1 and/or Rage and Methods of Use Thereof” (Medimmune, LLC, priority 2005, published 2008).

The labels stand for the following.
T1: recombinant HMG1 purified from E. coli as a calmodulin binding protein (CBP) fusion protein (human)
T1 chain: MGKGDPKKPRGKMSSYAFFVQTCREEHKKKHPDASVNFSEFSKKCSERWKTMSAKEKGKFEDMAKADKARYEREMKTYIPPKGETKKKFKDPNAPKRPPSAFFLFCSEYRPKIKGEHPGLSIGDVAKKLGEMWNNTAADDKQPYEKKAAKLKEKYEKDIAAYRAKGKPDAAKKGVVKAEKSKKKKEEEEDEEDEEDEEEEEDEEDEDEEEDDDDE

B1: anti-HMG1 antibody G2 (antibody, V domains shown)
VH: EVQLLESGGGLVQPGGSLRLSCAASGFTFSWYKMQWVRQAPGKGLEWVSGISPSGGSTAYADSVKGRFTISRDNSKNTLYLQMNSLRAEDTAVYYCAKMGLFNTGNSYVDYWGQGTLVTVSS
VL: AQSELTQPPSVSEAPGQRVTISCSGSTSNIGNNAVIWYQQLPGKAPKLLIYYDDLLPSGVSDRFSGSKSGTSGSLAISGLQSEDEADYYCASWDDNLNGPLFGGGTKLTVL
B2: anti-HMG1 antibody S17 (antibody, V domains shown)
VH: EVQLLESGGGLVQPGGSLRLSCAASGFTFSYYDMHWVRQAPGKGLEWVSRISPSGGYTWYADSVKGRFTISRDNSKNTLYLQMNSLRAEDTAVYYCTRGRYTSGWHEYFDPWGQGTLVTVSS
VL: AQDIQMTQSPSSLSASVGDRVTITCRASQSIGTYLNWYQQKPGTAPKVLIYAASSLQSGVPSRFSGSGSGTDFTLTISSLQPEDFSTYYCQQSYNTPRTFGQGTKLEIK
B3: anti-HMG1 antibody G20 (antibody, V domains shown)
VH: EVQLLESGGGLVQPGGSLRLSCAASGFTFSWYDMFWVRQAPGKGLEWVSWISPSGGYTKYADSVKGRFTISRDNSKNTLYLQMNSLRAEDTAMYYCARSGLDYYDSSGYLDAFDIWGQGTMVTVSS
VL: AQDIQMTQSPSSVSASVGDRVTITCRASQDVSIWLAWYQQKPGKAPKLLIFGASRLQSGVPSRFSGSRSGADFTLTIDSVQPEDFASYYCQQADSFPLTFGGGTKVEIK

The target of this assay is T1, recombinant HMG1 purified from E. coli …. Nature of the assay: BIAcore, mAb immobilized, HMG1 injected, steady-state model. To be noted: remark: other sources report otherwise. (In SPR one partner is held on a chip, and binding of the other changes the refractive index at the surface.)
Broadly, the Kd is a measure of binding affinity in units of concentration. As for B1, the dissociation constant (Kd) worked out at 101 nM.

For B2, the Kd turned out to be 331 nM. Consider B3, for which the dissociation constant Kd came to 114 nM.
